Experimental data taken from patent publication US20220026415A1 (NATIONAL CANCER CENTER, published 2022).

Tests used:
Experiment in all cases: immunoprecipitation with anti-RARRES1 antibody from RARRES1-transfected HEK293 cells with or without nocodazole, immunoblot
[1] = molecular target: T1, Cyclin D (endogenous, HEK293 cells) (UniProt P24385 1-295, limits assumed)
T1 construct: Printed only as 'Cyclin D'; Cyclin D1 is inferred from the antibody list; also called Cyclin D1
Description: (§1) The cells were lysed in a lysis buffer (20 mM Tris, pH 7.4, 5 mM EDTA, 10 mM Na₄ P₂O₇, 100 mM NaF, 1% NP-40, 1 mM PMSF, 0.2% protease inhibitor cocktail and phosphatase inhibitor). The protein concentrations of the cell lysates were measured using a Pierce BCA Protein Assay kit (Pierce, Rockford, USA). Subsequently, protein lysates were resuspended in a loading buffer, boiled for 5 minutes, and then subjected to SDS-PAGE and immunoblotting with the indicated antibodies. For immunoprecipitation, a TAP buffer (25 mM Tris, pH 7.4, 140 mM NaCl, 0.5% NP-40, 10 mM NaF, 1 mM dithiothreitol (DTT), 1 mM phenylmethylsulphonyl fluoride, 1 mM EDTA, 1 mM Na₃VO₄, 1 mM β-glycerophosphate, 10% glycerol and 0.2% protease inhibitor cocktail and phosphatase inhibitor) was added to the cell lysates, and then the cell lysates were incubated along with a RARRES1 antibody (R & D System, MN, USA) or GST beads at 4° C. Protein expression was detected by chemiluminescence using the SuperSignal West Pico Chemiluminescent Substrate (Pierce).
(§2) In addition, it was examined whether RARRES1 interacted with other CDK-Cyclin complexes, including interphase CDKs (CDK2, CDK4, and CDK6) and their binding partner Cyclins, and immunoprecipitation according to Example 1-8 was performed on 293 cells under the same conditions as those in FIG. 7C.

[2] = molecular target: CDK2 (endogenous, HEK293 cells) (UniProt P24941 1-298)
Description: as §1, §2

[3] = molecular target: Cyclin A (endogenous, HEK293 cells) (UniProt P20248 1-432, limits assumed)
Description: as §1, §2

[4] = molecular target: CDK4 (endogenous, HEK293 cells) (UniProt P11802 2-303)
Description: as §1, §2

Measured: binding result

T1 sequence (P24385 whole entry): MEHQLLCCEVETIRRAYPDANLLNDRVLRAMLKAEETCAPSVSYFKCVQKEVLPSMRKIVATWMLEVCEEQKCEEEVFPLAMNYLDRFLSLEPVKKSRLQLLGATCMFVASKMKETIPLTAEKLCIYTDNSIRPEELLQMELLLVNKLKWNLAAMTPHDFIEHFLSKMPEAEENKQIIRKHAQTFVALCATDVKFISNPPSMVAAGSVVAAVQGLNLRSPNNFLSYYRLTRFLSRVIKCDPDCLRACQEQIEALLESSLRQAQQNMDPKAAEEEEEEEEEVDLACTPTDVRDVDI
Sequence of Cyclin A (endogenous, HEK293 cells) (P20248 whole entry): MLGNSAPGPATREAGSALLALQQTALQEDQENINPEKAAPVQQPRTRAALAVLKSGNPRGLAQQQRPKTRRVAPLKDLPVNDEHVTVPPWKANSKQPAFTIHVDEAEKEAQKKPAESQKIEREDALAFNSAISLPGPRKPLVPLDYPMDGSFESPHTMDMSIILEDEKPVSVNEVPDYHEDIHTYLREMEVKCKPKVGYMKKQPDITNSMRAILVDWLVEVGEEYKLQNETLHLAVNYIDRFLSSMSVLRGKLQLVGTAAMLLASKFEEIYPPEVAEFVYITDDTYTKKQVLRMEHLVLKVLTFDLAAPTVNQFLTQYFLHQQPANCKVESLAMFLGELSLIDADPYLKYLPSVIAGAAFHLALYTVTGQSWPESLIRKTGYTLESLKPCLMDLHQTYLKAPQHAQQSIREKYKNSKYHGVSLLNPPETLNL
Sequence of CDK4 (endogenous, HEK293 cells) (P11802 2-303 limits assumed): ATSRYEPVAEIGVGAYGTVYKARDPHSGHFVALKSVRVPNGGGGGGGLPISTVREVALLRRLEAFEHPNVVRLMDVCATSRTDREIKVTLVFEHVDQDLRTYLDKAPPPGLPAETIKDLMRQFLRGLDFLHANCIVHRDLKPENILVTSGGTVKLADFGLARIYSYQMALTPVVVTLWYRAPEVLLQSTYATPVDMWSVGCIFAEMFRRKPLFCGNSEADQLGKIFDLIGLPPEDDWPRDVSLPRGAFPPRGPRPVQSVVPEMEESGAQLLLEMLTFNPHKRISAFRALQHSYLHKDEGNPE

B1: retinoic acid receptor responder 1 (RARRES1), isoform 1, wild type, overexpressed in HEK293 cells (other)
chain: MQPRRQRLPAPWSGPRGPRPTAPLLALLLLLAPVAAPAGSGDPDDPGQPQDAGVPRRLLQQAARAALHFFNFRSGSPSALRVLAEVQEGRAWINPKEGCKVHVVFSTERYNPESLLQEGEGRLGKCSARVFFKNQKPRPTINVTCTRLIEKKKRQQEDYLLYKQMKQLKNPLEIVSIPDNHGHIDPSLRLIWDLAFLGSSYVMWEMTTQVSHYYLAQLTSVRQWKTNDDTIDFDYTVLLHELSTQEIIPCRIHLVWYPGKPLKVKYHCQELQTPEEASGTEEGSAVVPTELSNF
notes: also called RARRES1-1
no binding: all assays above
